Experimental data reported in patent CN114181311A (dated 2022).

T1: His-DLL3胞外区蛋白 (Human DLL3 Protein, His Tag, ACRO DL3-H52H4) (human, UniProt Q9NYJ7 27-492)
T1 construct: extracellular domain; Bought protein; also called DLL3-His; DLL3抗原; not shown: His tag
T1 sequence (looked up): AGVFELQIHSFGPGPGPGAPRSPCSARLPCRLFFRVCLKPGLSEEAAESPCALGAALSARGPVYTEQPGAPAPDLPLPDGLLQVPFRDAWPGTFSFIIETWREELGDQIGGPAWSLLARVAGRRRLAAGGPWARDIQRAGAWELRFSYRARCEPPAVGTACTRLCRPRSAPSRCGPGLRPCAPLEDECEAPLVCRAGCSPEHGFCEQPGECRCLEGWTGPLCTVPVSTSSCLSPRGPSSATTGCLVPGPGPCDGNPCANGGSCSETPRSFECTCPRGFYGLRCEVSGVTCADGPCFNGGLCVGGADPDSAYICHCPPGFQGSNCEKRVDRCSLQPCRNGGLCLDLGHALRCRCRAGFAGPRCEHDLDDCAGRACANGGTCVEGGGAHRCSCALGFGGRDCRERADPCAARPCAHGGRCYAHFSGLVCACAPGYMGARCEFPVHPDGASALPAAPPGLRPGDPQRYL

T2: 小细胞肺癌细胞系SHP-77上表达的DLL3抗原 (UniProt Q9NYJ7 27-618)
T2 construct: whole, on cells; Endogenous DLL3 on SHP-77 cells; also called DLL3 on SHP-77 cells
T2 sequence (looked up): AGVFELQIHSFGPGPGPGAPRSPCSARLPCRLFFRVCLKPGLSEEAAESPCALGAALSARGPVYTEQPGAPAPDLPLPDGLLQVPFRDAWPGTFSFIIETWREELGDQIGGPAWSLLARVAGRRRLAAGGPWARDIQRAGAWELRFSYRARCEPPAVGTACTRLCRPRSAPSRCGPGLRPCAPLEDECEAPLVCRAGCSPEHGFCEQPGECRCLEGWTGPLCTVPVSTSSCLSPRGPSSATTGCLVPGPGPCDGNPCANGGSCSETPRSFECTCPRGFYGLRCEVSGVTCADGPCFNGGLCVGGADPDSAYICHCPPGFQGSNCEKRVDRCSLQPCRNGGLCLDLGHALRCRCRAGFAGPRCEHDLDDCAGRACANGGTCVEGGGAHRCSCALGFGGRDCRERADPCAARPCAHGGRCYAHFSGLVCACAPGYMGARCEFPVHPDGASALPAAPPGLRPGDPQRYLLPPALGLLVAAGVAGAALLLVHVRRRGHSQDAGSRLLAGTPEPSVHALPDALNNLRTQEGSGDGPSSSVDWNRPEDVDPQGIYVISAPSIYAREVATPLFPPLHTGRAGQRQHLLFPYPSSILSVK

B1: 抗DLL3 scFv G8 (G8-scFv) (scFv)
scFv: QVQLQQSGPGLVKPSQTLSLTCAISGDSVSSDSVAWSWIRQSPSRGLEWLGRTYYRSKWYYDYAASVKSRISINPDTSKNQFSLQLNSVTPEDTAVYYCAREPLRYGSSWWDAFDIWGQGTMITVSSGSASAPTLGGGGSGGGGSGGGGSQSALTQPPSVSGSPGQAVTISCTGTSSDVGRYNYVSWYQQHPGKVPKLILFDVSSRPSGVSHRFSGSKSGNTASLTISGLQAEDEADYYCTSYRSGSEVFGGGTKLTVL
notes: Fully human scFv from a phage library; also called 抗DLL3阳性克隆G8; 抗DLL3可溶性抗体G8
B2: G8 scFv-hFc (Fc fusion)
chain: B1 scFv
notes: Expressed in 293T cells and tested as culture supernatant; also called G8 scFv-hFc重组蛋白; not shown: human IgG1 Fc segment from the mammalian expression vector PUTAM003
B3: 抗DLL3 scFv A7 (A7-scFv) (scFv)
scFv: QVQLVQSGAEVKKPGASVKVSCKASGYTFTSYYMHWVRQAPGQGLEWMGIINPSGGSTSYAKKFQGRVTMTRDTSTSTVYMELNRVTSDDTAVYYCARGGGVTGFDYWGQGTLVTVSSGSASAPTLGGGGSGGGGSGGGGSDIQMTQSPSSLSASLGDRVTITCRASQTVRTYLNWYQQKPGKAPNLLIYGASSLQSGVPSRFSGSGSGTDFTLTINSLQPEDFGTYYCQQSDTPPLTFGGGTKVEIK
notes: Fully human scFv from a phage library; also called 抗DLL3阳性克隆A7; 抗DLL3可溶性抗体A7
B4: A7 scFv-hFc (Fc fusion)
chain: B3 scFv
notes: Expressed in 293T cells and tested as culture supernatant; also called A7 scFv-hFc重组蛋白; 抗DLL3单链抗体(scFv-hFc); not shown: human IgG1 Fc segment from the mammalian expression vector PUTAM003

Legend:
[1] = biological target: T1, His-DLL3胞外区蛋白 (Human DLL3 Protein, His …); assay: phage ELISA, scFv shown on M13 phage, coated DLL3-His 1 ug/ml, anti-M13-HRP
BSA(牛血清白蛋白) [2] = biological target: T3, BSA(牛血清白蛋白) (bovine, UniProt P02769 25-607); assay: ELISA, periplasmic extract with soluble scFv on coated BSA, anti-c-myc-HRP detection
T3 sequence (P02769 25-607 limits assumed): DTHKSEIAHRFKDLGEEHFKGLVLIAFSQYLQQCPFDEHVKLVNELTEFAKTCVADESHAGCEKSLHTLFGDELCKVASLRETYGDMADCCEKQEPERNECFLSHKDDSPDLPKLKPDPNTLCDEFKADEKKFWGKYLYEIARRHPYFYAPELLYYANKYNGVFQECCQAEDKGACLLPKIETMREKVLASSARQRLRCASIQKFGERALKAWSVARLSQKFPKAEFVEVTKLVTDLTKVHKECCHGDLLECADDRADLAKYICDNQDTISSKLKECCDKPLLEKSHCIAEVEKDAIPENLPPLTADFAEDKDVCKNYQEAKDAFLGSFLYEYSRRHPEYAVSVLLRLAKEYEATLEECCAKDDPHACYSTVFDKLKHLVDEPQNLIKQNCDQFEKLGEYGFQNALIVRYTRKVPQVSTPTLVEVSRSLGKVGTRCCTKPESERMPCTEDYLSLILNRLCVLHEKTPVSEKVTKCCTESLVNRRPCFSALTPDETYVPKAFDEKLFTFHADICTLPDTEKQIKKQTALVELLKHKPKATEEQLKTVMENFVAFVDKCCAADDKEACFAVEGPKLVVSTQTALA

小细胞肺癌细胞系SHP-77上表达的DLL3抗原 = biological target: T2, 小细胞肺癌细胞系SHP-77上表达的DLL3抗原; assay: flow cytometry on SHP-77 cells, PE anti-human Fc detection
BSA(牛血清白蛋白) [3] = biological target: T3, BSA(牛血清白蛋白); assay: ELISA, 293T culture supernatant on coated BSA, anti-human IgG-Fc-HRP detection
[4] = biological target: T1, His-DLL3胞外区蛋白 (Human DLL3 Protein, His …); assay: ELISA, 293T culture supernatant, coated DLL3-His 1 ug/ml, anti-human IgG-Fc-HRP

Row | Binder | binding result [1] | binding result (BSA(牛血清白蛋白) [2]) | binding result (小细胞肺癌细胞系SHP-77上表达的DLL3抗原) | binding result (BSA(牛血清白蛋白) [3]) | binding result [4]
1 | B1 | binds | no binding |  |  | 
2 | B2 |  |  | binds | no binding | binds
3 | B3 | binds | no binding |  |  | 
4 | B4 |  |  | binds | no binding | binds
